Experiments:
Assay in all cases: ITC
[1] = biological target: HP1α K46A/E52D/D62F engineered chromodomain (His-tagged) (D. melanogaster) (UniProt P05205)
[2] = biological target: HP1α chromodomain from D. melanogaster, wild-type (His-tagged) (D. melanogaster) (UniProt P05205)
[3] = biological target: human CBX1 chromodomain double mutant K46A/D62F (HP1α numbering) (His-tagged) (human)
[4] = biological target: human CBX1 chromodomain, wild-type (His-tagged) (human) (UniProt P83916)
[5] = biological target: human CBX3 chromodomain double mutant K46A/D62F (HP1α numbering) (His-tagged) (human)
[6] = biological target: human CBX3 chromodomain, wild-type (His-tagged) (human) (UniProt Q13185)
UniProt Q13185, sequence (Q13185 25-81): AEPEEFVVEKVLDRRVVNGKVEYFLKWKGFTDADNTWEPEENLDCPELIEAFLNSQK

UniProt P83916, sequence (P83916 15-73): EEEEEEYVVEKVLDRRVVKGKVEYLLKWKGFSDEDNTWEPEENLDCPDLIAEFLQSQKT

- Kd [1]: 700 nM
- Kd [2]: 14000 nM
- Kd [3]: 130 nM
- Kd [4]: 600 nM
- Kd [5]: 400 nM
- Kd [6]: 3000 nM
Substance: H3K9me3 peptide (used in ITC)

From publication PMC7365037
